# Reference: paper PMC11946911
# Tests used:
# [1] = molecular target: EcZorB (ZorB of the Escherichia coli NCTC 9026 type I Zorya system, EcZorI) (Escherichia coli NCTC 9026); assay: cryo-EM structure
# [2] = molecular target: EcZorA (ZorA of the Escherichia coli NCTC 9026 type I Zorya system, EcZorI) (Escherichia coli NCTC 9026); assay: cryo-EM structure
stoichiometry N [1],stoichiometry N [2],Substance
2,,"EcZorB (ZorB of the Escherichia coli NCTC 9026 type I Zorya system, EcZorI) (natural protein)"
,5,"EcZorA (ZorA of the Escherichia coli NCTC 9026 type I Zorya system, EcZorI) (natural protein)"
